Results: patent US20090148466A1, “Process for the Preparation of Hypoallergenic Mosaic Antigens” (BIOMAY AG, priority 2003, published 2009)
One block for each molecule: values may come before it.

Assays:
[1] = system: grass pollen allergic patients; assay: Skin prick test (immediate type skin reactions); conditions: standardized skin prick solution
Procedure: SPTs (skin prick tests) were performed on the individuals' forearms. Twenty microliter aliquots containing 5 concentrations of rPhl p 2 and of Phl p 2-derived mosaic P2M (1 μg/ml, 2 μg/ml, 4 μg/ml, 8 μg/ml, 16 μg/ml) were applied. In addition, standardized skin prick solutions (timothy grass pollen extract and histamine) (Allergopharma, Reinbeck, Germany) were tested. Reactions were recorded 20 minutes after SPT by photography and by transferring the ballpoint pen-surrounded wheal area with a scotch tape to paper. The mean wheal diameter (Dm) was calculated by measuring the maximal longitudinal and transversal diameter and dividing their sum by 2 as described by Focke et al., 2001.

[2] = Characteristics of Phl p 2-derived synthetic peptides (isoelectric point); type: physicochemical
Source text: Table 1: Characteristics of Phl p 2-derived synthetic peptides. […] Peptide 1 corresponds to SEQ ID NO:3, Peptide 3 corresponds to SEQ ID NO:4 and Peptide 2 corresponds to SEQ ID NO:5.

[3] = system: IgE antibodies in sera from grass pollen allergic patients; assay: IgE reactivity by dot blot with sera from grass pollen allergic patients; type: binding, human; conditions: for IgE binding capacity (dot blot): sera from 12 timothy grass pollen allergic patients
Procedure: The allergenic activity of the Phl p 2-derived peptides was evaluated by comparing the IgE-reactivity of complete rPhl p 2 with the peptides by dot blot analysis (FIG. 1). Nitrocellulose-dotted Phl p 2-derived peptides (P1-P3), an immunologically unrelated major grass pollen allergen, rPhl p 5 (Vrtala S, Sperr W R, Reimitzer I, van Ree R, Laffer S, Müller WD, Valent P, Lechner K, Rumpold H, Kraft D, Scheiner 0, Valenta R. cDNA cloning of a major allergen from timothy grass (Phleum pratense) pollen; characterization of the recombinant Phl p V allergen. J. Immunol. 1993, 151: 4773-4781), and for control purposes, human serum albumin as well as a control peptide were exposed to sera from grass pollen allergic patients and to serum from a non-allergic individual.
Bound IgE antibodies were detected as described previously (Valenta R, Duchêne M, Ebner C, Valent P, Sillaber C, Deviller P, Ferreira F, Tejkl M, Edelmann H, Kraft D, Scheiner O. Profilins constitute a novel family of functional plant pan-allergens. J. Exp. Med. 1992, 175: 377-385).
(§1) The IgE binding capacity of purified Phl p 2 mosaic (P2M) was compared with that of Phl p 2 wildtype by dot blot experiments as described for the peptides using sera from twelve timothy grass pollen allergic patients (FIG. 7). […] Basophils from a grass pollen allergic patient were enriched by dextran sedimentation and exposed to increasing concentrations of purified rPhl p 2 or rPhl p 2 mosaic as described (Valent P, Besemer J, Muhm M, Majdic O; Lechner K, Bettelhei P. Interleukin 3 activates human blood basophils via high-affinity binding sites. Proc. Natl. Acad. Sci. USA 1989, 86: 5542-5546).

serum IgE = conditions: cited from earlier work
[4] = system: Basophils from a grass pollen allergic patient; assay: Basophil histamine release; type: cell-based, human
Source text: as §1
Histamine released in the cell free supernatants was determined in triplicates by radioimmuno assay and is expressed as mean percentage of the total histamine content of the cells as described by Valent et al.

mean wheal diameter ([1]; Individual 1): 8 mm
mean wheal diameter ([1]; Individual 2): 8 mm
Molecule: NCCc1c[nH]cn1 [Histamine, histamine]

Molecule: Peptide 2: synthetic Phl p 2-derived peptide; Table 1 prints aa 65-96, SEQ ID NO:4; text says aa 34-64 (REHGSDEWVAMTKGEGGVWTFDSEEPLQGPFNC) [synthetic Phl p 2-derived peptide; text says aa 34-64]
Isoelectric point [2]: 4.03

Molecule: Peptide 3: synthetic Phl p 2-derived peptide; Table 1 prints aa 34-64, SEQ ID NO:5; text says aa 65-96 (CFRFLTEKGMKNVFDDVVPEKYTIGATYAPEE) [synthetic Phl p 2-derived peptide; text says aa 65-96]
Isoelectric point [2]: 4.45

B1: rPhl p 2: recombinantly produced wild type timothy grass pollen allergen Phl p 2, his-tagged (protein)
chain: MVPKVTFTVEKGSNEKHLAVLVKYEGDTMAEVELREHGSDEWVAMTKGEGGVWTFDSEEPLQGPFNFRFLTEKGMKNVFDDVVPEKYTIGATYAPEEHHHHHH
IgE reactivity (dot blot) ([3]; nitrocellulose-dotted, sera from 35 grass pollen allergic patients): Sera from all 35 grass pollen allergic patients showed IgE reactivity
IgE binding capacity (dot blot) [3]: Sera from all 12 grass pollen allergic patients contained IgE antibodies against rPhl p 2
share of grass pollen allergic individuals whose serum IgE reacts (serum IgE): about 70%
concentration of maximal histamine release ([4]; basophils from a grass pollen allergic patient): 10^−3 μg/ml

B2: P2M: recombinant his-tagged mosaic protein: the three Phl p 2-derived peptides recombined in altered order 1, 3, 2 (SEQ ID NO:1) (protein)
chain: MVPKVTFTVEKGSNEKHLAVLVKYEGDTMAEVELFRFLTEKGMKNVFDDVVPEKYTIGATYAPEEREHGSDEWVAMTKGEGGVWTFDSEEPLQGPFNHHHHHH
modifications: His tag
IgE binding capacity (dot blot) [3]: no serum exhibited IgE reactivity
reduced allergenic activity compared to the rPhl p 2 allergen ([4]; basophil histamine release): more than 1000 fold
